The values below are quoted from earlier work in PMC11638072.

Broadly, the pKd is the negative decadic logarithm of the Kd, by convention in mol/L.

pKd: −log10 of the molar value.

This data set has as its target Trigger factor (Escherichia coli) (UniProt P0A850).

Trigger factor, sequence (P0A850 whole entry): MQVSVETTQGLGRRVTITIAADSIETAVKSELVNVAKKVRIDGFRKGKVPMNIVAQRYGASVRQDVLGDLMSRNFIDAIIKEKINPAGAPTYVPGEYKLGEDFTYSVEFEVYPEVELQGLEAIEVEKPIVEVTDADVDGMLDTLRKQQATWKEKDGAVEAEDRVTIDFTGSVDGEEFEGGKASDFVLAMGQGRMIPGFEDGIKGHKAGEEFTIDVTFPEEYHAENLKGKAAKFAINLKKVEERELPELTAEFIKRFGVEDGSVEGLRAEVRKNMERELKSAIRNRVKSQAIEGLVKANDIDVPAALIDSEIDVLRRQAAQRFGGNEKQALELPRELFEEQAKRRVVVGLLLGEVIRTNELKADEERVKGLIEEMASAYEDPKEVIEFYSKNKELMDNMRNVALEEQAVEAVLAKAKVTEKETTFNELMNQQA

Take Trigger factor (from UniProt P0A850): the pKd was 6.00.
